Source: US7122633 (Pfizer, dated 2006)

Molecular target: T1, NKSF larger subunit, 40 kD (human, UniProt P29460 23-328)
T1 construct: also called 40 kD subunit; NKSF heavy chain
T1 sequence: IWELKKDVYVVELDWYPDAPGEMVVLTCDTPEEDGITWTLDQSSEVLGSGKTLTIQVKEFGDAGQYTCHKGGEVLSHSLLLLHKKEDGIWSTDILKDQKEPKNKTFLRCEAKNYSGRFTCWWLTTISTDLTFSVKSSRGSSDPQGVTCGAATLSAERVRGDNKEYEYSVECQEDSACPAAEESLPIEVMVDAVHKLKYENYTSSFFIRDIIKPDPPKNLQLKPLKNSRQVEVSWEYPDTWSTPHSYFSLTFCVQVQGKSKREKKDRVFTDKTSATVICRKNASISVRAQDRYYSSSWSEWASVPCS
Experiment: SDS-PAGE of the iodinated 70 kD species, non-reduced against reduced with β-mercaptoethanol
Description: SDS-PAGE was performed according to the method of Laemmli [Laemmli, U. K., *Nature*, 227:680–685 (1970)] on 10% acrylamide slab gels (0.75 mm thickness). After electrophoresis the gels were either stained by the silver-nitrate method using a silver staining reagents [BioRad] or cut into 2 mm slices and eluted in 0.5 ml RPMI medium for 4 hours at 24° C. and assayed for NKSF activity. Apparent molecular weight was determined with protein standards, […] (94 kD), bovine serum albumin (67 kD), ovalbumin (43 kD), carbonic anhydrase (30 kD), soybean trypsin inhibitor (20 kD) and lactalbumin (14.4 kD).
The 70 kD species was eluted from the gel, iodinated using chloramine T [Sigma, St. Louis, Mo.] and rerun on a second SDS gel after boiling for two minutes in the presence of the reducing agent, β-mercaptoethanol (10%). […] Alternatively, NKSF may be a dimer formed by multiples of the larger or smaller subunits. The reduction of the native 70 kD NKSF appeared to destroy all of its ability to induce peripheral blood lymphocyte production of gamma interferon.

B1: NKSF smaller subunit, 30-35 kD (other)
chain: RNLPVATPDPGMFPCLHHSQNLLRAVSNMLQKARQTLEFYPCTSEEIDHEDITKDKTSTVEACLPLELTKNESCLNSRETSFITNGSCLASRKTSFMMALCLSSIYEDLKMYQVEFKTMNAKLLMDPKRQIFLDQNMLAVIDELMQALNFNSETVPQKSSLEEPDFYKTKIKLCILLHAFRIRAVTIDRVMSYLNAS
notes: also called 30 kD subunit; 30 kD (smaller version)
binding result: binds
